Fewer inactive variants are shown than the library holds.
B1: TPR 5TU (parent)
chain: GGAUCUUCUCGAUCUAACAAAAAAGACAAAUCUGCCACAAAGCUUGAGAGCAUCUUCGGAUGCAGAGGCGGCAGCCUUCGGUGGCGCGAUAGCGCCAACGUUCUCAACUAUGACACGCAAAACGCGUGCUCCGUUGAAUGGAGUUUAUCAUG

Variants of: B1
Assay: polymerase ribozyme fitness, log enrichment relative to wild type (log ratio); higher = more active; in vitro selection for triplet polymerase activity
Method in brief: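 Each subunit of a heterodimeric triplet polymerase ribozyme was mutagenized into a library by PCR, transcribed, and subjected to one round of in vitro selection, run in triplicate. Libraries were annealed with a biotinylated primer, the partner subunit and triplets, incubated frozen at −7 °C, and extended constructs were gel-excised, captured on streptavidin beads and recovered by RT-PCR. Input and output libraries were sequenced on Illumina, keeping genotypes with ≥10 input reads and ≥1 read per output. Fitness is log base 2 of genotype enrichment divided by wild-type enrichment, from inverse-variance-weighted replicate averages.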

Variant | polymerase ribozyme fitness (log ratio)
A22U A98G | -0.232
A20U G94A G112A | -3.86
A21C A47C C96A G133C | -1.54
A22C G70C | -4
A21U C27G C36A G117C | -4.02
A23C A40U G48U G94C C99G U144A | ≤ -4.2
A22G C35A A107C | ≤ -4.2
A23C A110G U111A | ≤ -4.2
A21C G58A C93U U102G C131G | ≤ -4.2
A21C G50C | -1.92
A21C U56G G62C U101G | -3.54
A22U G59A U101A | 0.375
A20U U31C C116U A121U A150C | -3.57
A21C C87A | -4.15
A21G A138G | -3.38
A21U C57A | 0.469
A21G A49C G84A G92U A97U A138G | ≤ -4.2
A22C C96U | -0.0389
A22C G50C C57G G80U C87A A150U | ≤ -4.2
A21U C87A G117C A137C A142U | ≤ -4.2
A21G A22G A47C C51A G74C C75U U102G C132G G143C | ≤ -4.2
A22C A37C G59U A89U C93G A119U | ≤ -4.2
A20U U77G C96U C99U | ≤ -4.2
A22C G34A A64G U144G U151A | -4.04

Variant | polymerase ribozyme fitness (log ratio)
A22C G42U A47G C76G A91G A106U A110G | ≤ -4.2
A22U C87A C99U C103G A142C | ≤ -4.2
A21U C54A A142G | -2.81
A22G G48C G59A G83A | -4.06
A22U U55G | -0.206
A21U C32U A52G C85A | -4.08
A21C G83U C116G | -0.153
A21C A91C U127C | ≤ -4.2
A21C A24C A52C C79A C93U A150U G152C | ≤ -4.2
A21U G34U C54G U61G C108G G140A U145C | -4.13
A21C C27U C35U G68A C96A A147G | ≤ -4.2
A21G C36G U53C | -3.97
A21G A24U G50A C57A C87G C93G A110U A121U | -4.06
A21G G25U U56A C85U G94U C123U | -2.71
A22C C95U A138U | ≤ -4.2
A22G C35G U44C U77G C87A C93G U111G | ≤ -4.2
A21U A91U | ≤ -4.2
A21U A60G G65C | -3.98
A21U C35A A106U A119U A138C | ≤ -4.2
A21U U56A | -0.173
A22C C38U G83C A122G G141U | 0.178
A21U U45C C85A | -3.36
A22C G86A U101A G141A A142G | ≤ -4.2
A21U G58C C76G C87U C105A A119U | ≤ -4.2

Variant | polymerase ribozyme fitness (log ratio)
A22C G83U A115G | -1.96
A22C A37U G48C C87U G124A U134C | -4.18
A21C C43A U45G G48C A73G G86U C96G A97C G140U | ≤ -4.2
A22G U56A C85U | -0.116
A22U U61G G86A U104G | ≤ -4.2
A22C C87U C123G | -0.845
A21C A23G C51G U55A U101A | ≤ -4.2
A21G G25C G34A G71U G100C A107U U109C A121U A150U | ≤ -4.2
A22G C87U | -0.258
A22C C79A G83U A115G G141A | ≤ -4.2
A22G G48A G62C G94A C116U | ≤ -4.2
A21C C27U G59C C69A | -3.75
A22U G48C G50U A120U U145C | -2.9
A21G A29C G88A G92C C96G U102G A107U | ≤ -4.2
A21U A52G G92A G124C | -3.99
A21U A41C G65A C85A | ≤ -4.2
A21G U31A A41G C51U C87A C118A U139A C149G | ≤ -4.2
A22G A23C G83A | ≤ -4.2
A22U A28U A47C C72G G84U C149A | ≤ -4.2
A22G C54U C85U C103U C132U A147C | -3.75
A21G A40C | 0.803
A21C G59C A98G C125G G136A U146G | -1.19
A22C A60U A66U C93U G100C A138G C149A | ≤ -4.2
A22G U44A U53C G67C C99G G126A U134C | ≤ -4.2

Variant | polymerase ribozyme fitness (log ratio)
A21G C75U | 0.894
A21C A39U C95G A113U C149U A150G | ≤ -4.2
A23C A29G C96G U139G | -4.19
A22C G25A C93U C118A | ≤ -4.2
A22U A24G C43U C57G G59A A89G G92C U135A | ≤ -4.2
A22U A52C C99U | -1.89
A21U A49G G84U U145G | -2.57
A22U C38U A73U C96U | 0.145
A22U C54U G88C A106G U146A | ≤ -4.2
A21C C36U C57A C95U A97G A98U C125U | -3.21
A20U U53G C72G C95G C108U C118A | ≤ -4.2
A21U U55A C63U C85U | 0.519
A22U G50C C54A C63G A106U A119G | -3.06
A22C A89G C95A C103A G124U | -4
A21G C69G U82A C87U | -1.28
A21G U56A G67C U77G G88A C99A U109G | ≤ -4.2
A22C G71C C79U C95G G143A U144C | ≤ -4.2
A21G G59C U102G G124A | -3.04
A22U U44A U45A A122G G140C G143U U146C | ≤ -4.2
A22U C87G U104A C105A | ≤ -4.2
A21C G136A | 0.615
A21U U33A A39G C87U G136C | ≤ -4.2
A22C A40C G94A A119G | 0.789
A21U G50C U53A | -3.62

Variant | polymerase ribozyme fitness (log ratio)
A22C C51U U55G G67A G84C A115U G140C | ≤ -4.2
A22G C95U A119G | 0.832
A22C G65C G80U A91G | ≤ -4.2
A22C G58A C72A C87G C125G G126U | ≤ -4.2
A22G G84U G88U A89U | ≤ -4.2
A21U U33C G42A U45G U53A U90A C96U C114G | -3.87
A22U A30C C32A A60C C85G G86A A89U A110G U135G U144G | ≤ -4.2
A21C C54A C95U C114G G136U | ≤ -4.2
A22U C32U A47U G83A C125U | ≤ -4.2
A22U U45A C57U G58A G59U C87A | ≤ -4.2
A22C C85G | -2.43
A22C C85G A150G | -2.71
A22U C85U U134G G143C C149A | ≤ -4.2
A21U C87A | -3.82
A22U C43A G86A U90A | ≤ -4.2
A21G A23G G58C G59A C85G C103A C108U | ≤ -4.2
A22U U55A C57A C85G | -1.44
A22G C38G C96U A110U U111A | ≤ -4.2
A22U A47C U55G G84U C125G | -3.06
A22G U55A G83U C129A | -3.65
A21U C93U | -0.752
A21U A39G A52C G58A G80A G83U C85A C93A | ≤ -4.2
A22C C69U C93U | -1.59
A22U C43A C57G C93U C96U | ≤ -4.2

Variant | polymerase ribozyme fitness (log ratio)
A22G G59C G62C C63U C87G A89U A120C G143C | -3.94
A22G A30U G65C G136A | ≤ -4.2
A21C C27G A64C C85A | ≤ -4.2
A22C A60C G62U | -2.13
A21U C38G G84A G136C | -3.78
A22U A89U C105U | 0.731
A22C A28G G48C G62A A64C C85U | ≤ -4.2
A21G A52G U53A C54U C87U C95A G136A G140U | ≤ -4.2
A21G C75U A120G | 0.879
A22G A73U C87U | -3.05
A22G C32U C103G A147G G152A | ≤ -4.2
A21U A24G U61A G81U | ≤ -4.2
A22G A47C U55A U61A G92C A142U | ≤ -4.2
A22U C38U U53A G74C U90C A120U | ≤ -4.2
A21U C108U | -3.78
A22U A39C G59C G143A | -4.09
A21C A40C U45A A73G G83U C96A | ≤ -4.2
A22G C85A G143C | -2.92
A22U C57U | -0.0575
A21G U31G C38U A73C C87A C96U | ≤ -4.2
A21G G94A A97G A137G | -2.22
A22U A49G A60G G83U G84U | -3.24
A22G A40G G42C C79A G94C | ≤ -4.2
A22G G34C C95U A138G | ≤ -4.2

Variant | polymerase ribozyme fitness (log ratio)
A22U C75G C76U G94C A110U A147U | ≤ -4.2
A22U G50C C63U G71A G84A G117U A122U | -4
A21U G84A | 0.266
A21C C57A A91G C99U G140C | ≤ -4.2
A20U G92U U104G | -1.82
A21C C27G G83C A113U G140A | ≤ -4.2
A20U G141C | -1.4
A22U G83C G86U C108A C129U | ≤ -4.2
A21G G50C A66C U82C G86C C114G A120C A150G | ≤ -4.2
A21G U55G C79G G94A C99A | ≤ -4.2
A21C C85G C87U U145G | -3.2
A21G A49C C93G C96U | ≤ -4.2
A21U C116U | 0.00754
A22G G59C C75G C108G A138G | ≤ -4.2
A22U C38A G50U U56A C75G C93U U134A | ≤ -4.2
A23C A41C C54G U77A A91G C105G G126A G136A A137G | ≤ -4.2
A21G C57U C93U G136C | -4.04
A23C A24U U61C G83A G112U U127G | ≤ -4.2
A22U U55A U56A A97U | -0.631
A21G C36U A52C A107U U127C | ≤ -4.2
A22G C32G A40C G84A | -4.13
A23C A30C A52C C95U U144A | ≤ -4.2
A22U A29U A39U U55A C79A C93G | ≤ -4.2
